From US20220298218A1 (ANTAG THERAPEUTICS, published 2022)
Where no end group is shown, it is not given here. The star is where a group is joined. C16 diacid = O=C(O)CCCCCCCCCCCCCCC(=O)*

T1: human GIP receptor (human, UniProt P48546 22-466)
T1 sequence (looked up): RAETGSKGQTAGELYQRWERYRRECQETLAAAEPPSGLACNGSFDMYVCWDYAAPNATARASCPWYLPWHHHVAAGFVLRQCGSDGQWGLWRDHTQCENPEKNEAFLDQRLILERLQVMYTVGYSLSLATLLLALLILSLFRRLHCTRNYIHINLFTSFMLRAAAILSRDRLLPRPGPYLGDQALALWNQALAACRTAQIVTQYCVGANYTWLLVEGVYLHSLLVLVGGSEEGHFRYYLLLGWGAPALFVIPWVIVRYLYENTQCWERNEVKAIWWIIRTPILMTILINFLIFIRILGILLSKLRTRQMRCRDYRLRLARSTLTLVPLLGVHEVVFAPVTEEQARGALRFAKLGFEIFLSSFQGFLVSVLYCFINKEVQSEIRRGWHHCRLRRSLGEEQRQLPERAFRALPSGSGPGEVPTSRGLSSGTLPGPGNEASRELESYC

B1: AT463 (peptide)
peptide: FISDYSIAMDKIK(C16 diacid)QQDFVNWLLAQKGKK-OH
modifications: N-terminus assumed
SMILES: CC[C@H](C)[C@H](NC(=O)[C@H](CO)NC(=O)[C@H](Cc1ccc(O)cc1)NC(=O)[C@H](CC(=O)O)NC(=O)[C@H](CO)NC(=O)[C@@H](NC(=O)[C@@H](N)Cc1ccccc1)[C@@H](C)CC)C(=O)N[C@@H](C)C(=O)N[C@@H](CCSC)C(=O)N[C@@H](CC(=O)O)C(=O)N[C@@H](CCCCN)C(=O)N[C@H](C(=O)N[C@@H](CCCCNC(=O)CCCCCCCCCCCCCCC(=O)O)C(=O)N[C@@H](CCC(N)=O)C(=O)N[C@@H](CCC(N)=O)C(=O)N[C@@H](CC(=O)O)C(=O)N[C@@H](Cc1ccccc1)C(=O)N[C@H](C(=O)N[C@@H](CC(N)=O)C(=O)N[C@@H](Cc1c[nH]c2ccccc12)C(=O)N[C@@H](CC(C)C)C(=O)N[C@@H](CC(C)C)C(=O)N[C@@H](C)C(=O)N[C@@H](CCC(N)=O)C(=O)N[C@@H](CCCCN)C(=O)NCC(=O)N[C@@H](CCCCN)C(=O)N[C@@H](CCCCN)C(=O)O)C(C)C)[C@@H](C)CC
B2: AT464 (peptide)
peptide: FISDYSIAMDKIK(C16 diacid)QQDFVNWLLAQKGKKNDW-OH
modifications: N-terminus assumed
SMILES: CC[C@H](C)[C@H](NC(=O)[C@H](CO)NC(=O)[C@H](Cc1ccc(O)cc1)NC(=O)[C@H](CC(=O)O)NC(=O)[C@H](CO)NC(=O)[C@@H](NC(=O)[C@@H](N)Cc1ccccc1)[C@@H](C)CC)C(=O)N[C@@H](C)C(=O)N[C@@H](CCSC)C(=O)N[C@@H](CC(=O)O)C(=O)N[C@@H](CCCCN)C(=O)N[C@H](C(=O)N[C@@H](CCCCNC(=O)CCCCCCCCCCCCCCC(=O)O)C(=O)N[C@@H](CCC(N)=O)C(=O)N[C@@H](CCC(N)=O)C(=O)N[C@@H](CC(=O)O)C(=O)N[C@@H](Cc1ccccc1)C(=O)N[C@H](C(=O)N[C@@H](CC(N)=O)C(=O)N[C@@H](Cc1c[nH]c2ccccc12)C(=O)N[C@@H](CC(C)C)C(=O)N[C@@H](CC(C)C)C(=O)N[C@@H](C)C(=O)N[C@@H](CCC(N)=O)C(=O)N[C@@H](CCCCN)C(=O)NCC(=O)N[C@@H](CCCCN)C(=O)N[C@@H](CCCCN)C(=O)N[C@@H](CC(N)=O)C(=O)N[C@@H](CC(=O)O)C(=O)N[C@@H](Cc1c[nH]c2ccccc12)C(=O)O)C(C)C)[C@@H](C)CC
B3: AT465 (peptide)
peptide: FISDYSIAMDKIK(C16 diacid)QQDFVNWLLAQKGKKNDWKHN-OH
modifications: N-terminus assumed
SMILES: CC[C@H](C)[C@H](NC(=O)[C@H](CO)NC(=O)[C@H](Cc1ccc(O)cc1)NC(=O)[C@H](CC(=O)O)NC(=O)[C@H](CO)NC(=O)[C@@H](NC(=O)[C@@H](N)Cc1ccccc1)[C@@H](C)CC)C(=O)N[C@@H](C)C(=O)N[C@@H](CCSC)C(=O)N[C@@H](CC(=O)O)C(=O)N[C@@H](CCCCN)C(=O)N[C@H](C(=O)N[C@@H](CCCCNC(=O)CCCCCCCCCCCCCCC(=O)O)C(=O)N[C@@H](CCC(N)=O)C(=O)N[C@@H](CCC(N)=O)C(=O)N[C@@H](CC(=O)O)C(=O)N[C@@H](Cc1ccccc1)C(=O)N[C@H](C(=O)N[C@@H](CC(N)=O)C(=O)N[C@@H](Cc1c[nH]c2ccccc12)C(=O)N[C@@H](CC(C)C)C(=O)N[C@@H](CC(C)C)C(=O)N[C@@H](C)C(=O)N[C@@H](CCC(N)=O)C(=O)N[C@@H](CCCCN)C(=O)NCC(=O)N[C@@H](CCCCN)C(=O)N[C@@H](CCCCN)C(=O)N[C@@H](CC(N)=O)C(=O)N[C@@H](CC(=O)O)C(=O)N[C@@H](Cc1c[nH]c2ccccc12)C(=O)N[C@@H](CCCCN)C(=O)N[C@@H](Cc1c[nH]cn1)C(=O)N[C@@H](CC(N)=O)C(=O)O)C(C)C)[C@@H](C)CC

Biological target: T1, human GIP receptor
Assay: cell-based or functional assay

Binder	cAMP antagonism	cAMP antagonism % inhib	cAMP antagonism log
B1	14 nM	88%	-7.8 log M
B2	50 nM	100%	-7.3 log M
B3	28 nM	86%	-7.6 log M
